T1: DLL4 N-EGF2 (Rattus norvegicus, UniProt D3ZHH1)
T1 chain: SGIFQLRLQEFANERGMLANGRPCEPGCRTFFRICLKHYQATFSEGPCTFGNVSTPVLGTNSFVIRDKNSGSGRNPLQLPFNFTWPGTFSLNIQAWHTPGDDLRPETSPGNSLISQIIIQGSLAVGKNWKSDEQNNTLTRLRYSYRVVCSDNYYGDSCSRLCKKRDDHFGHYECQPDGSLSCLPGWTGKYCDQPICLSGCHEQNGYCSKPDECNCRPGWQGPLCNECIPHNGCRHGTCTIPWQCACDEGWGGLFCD


Molecular target: T1, DLL4 N-EGF2
Assay: SPR

Kd [µM]	Binder
12.7	MPRLLAPLLCLTLL [Notch1 EGF1-14]
7.5	Notch1 411-530 (protein) QDVDECALGANPCEHAGKCLNTLGSFECQCLQGYTGPRCEIDVNECISNPCQNDATCLDQIGEFQCICMPGYEGVYCEINTDECASSPCLHNGRCVDKINEFLCQCPKGFSGHLCQYDVD
8.6	CLTLL [Notch1 EGF10-14]

— PMC4445638 (2015)
